Reference: the RNAGym collection of RNA variant scans (doi:10.7554/elife.80360)

B1: CPEB3 Ribozyme (parent)
chain: GGGGGCCACAGCAGAAGCGUUCACGUCGCGGCCCCUGUCAGAUUCUGGUGAAUCUGCGAAUUCUGCUGU

Variants of: B1
Experiment: self-cleavage, relative activity (ratio to wild type); higher = more cleavage; co-transcriptional

| Variant | self-cleavage |
| --- | --- |
| GGGGGCCACAGCAGAAGCGUUCACGUCGCGGCCCCUGUCAGAUUUUGGAGAAUCUGCGAAUUCUGCUGU | 0.993 |
| GGGGGCCACAGCAGAAGCGUUCACGUCGCGGCCCCUGUCAGAUUCCGGUGAAUCUGCGAUUUCUGCUGU | 0.472 |
| GGGGGCCACAGCAGAAGCGUUCACGUCGCGGCCCCUGUCAGAUUCCGGUGAAUCUGCGACUUCUGCUGU | 0.339 |
| GGGGGCCACAGCAGAAGCGUUCACGUCGCGGCCCCUGUCAGAUUCAGGUGAAUCUGCGAAUUCUUCUGU | 0.926 |
| GGGGGCCACAGCAGAAGCGUUCACGUCGCGGCCCCUGUCAGAUUCCGGUGUAUCUGCGAAUUCUGCUGU | 0.994 |
| GGGGGCCACAGCAGAAGCGUUCACGUCGCGGCCCCUGUCAGAUUCCGGUGGAUCUGCGAAUUCUGCUGU | 0.988 |
| GGGGGCCACAGCAGAAGCGUUCACGUCGCGGCCCCUGUCAGAUUCCGGUGAAUCUGCGGAUUCUGCUGU | 1.03 |
| GGGGGCCACAGCAGAAGCGUUCACGUCGCGGCCCCUGUCAGAUUCCGGUGAAUCUGCGUAUUCUGCUGU | 0.847 |
| GGGGGCCACAGCAGAAGCGUUCACGUCGCGGCCCCUGUCAGAUUCAGGUGAAUCUGCGACUUCUGCUGU | 0.346 |
| GGGGGCCACAGCAGAAGCGUUCACGUCGCGGCCCCUGUCAGAUUCAGGUGAAUCUGCGAGUUCUGCUGU | 0.91 |
| GGGGGCCACAGCAGAAGCGUUCACGUCGCGGCCCCUGUCAGAUUUUGGUGAAUCUUCGAAUUCUGCUGU | 0.897 |
| GGGGGCCACAGCAGAAGCGUUCACGUCGCGGCCCCUGUCAGAUUUUGGUGAAUCUCCGAAUUCUGCUGU | 0.694 |
| GGGGGCCACAGCAGAAGCGUUCACGUCGCGGCCCCUGUCAGAUUCAGUUGAAUCUGCGAAUUCUGCUGU | 0.991 |
| GGGGGCCACAGCAGAAGCGUUCACGUCGCGGCCCCUGUCAGAUUCAGAUGAAUCUGCGAAUUCUGCUGU | 1.01 |
| GGGGGCCACAGCAGAAGCGUUCACGUCGCGGCCCCUGUCAGAUUCAGCUGAAUCUGCGAAUUCUGCUGU | 1.01 |
| GGGGGCCACAGCAGAAGCGUUCACGUCGCGGCCCCUGUCAGAUUCAGGUGAAUCUGCGAAUUUUGCUGU | 1.02 |
| GGGGGCCACAGCAGAAGCGUUCACGUCGCGGCCCCUGUCAGAUUCAGGUGAAUCUGUGAAUUCUGCUGU | 0.309 |
| GGGGGCCACAGCAGAAGCGUUCACGUCGCGGCCCCUGUCAGAUUCAGGUGAAUCUGGGAAUUCUGCUGU | 0.31 |
| GGGGGCCACAGCAGAAGCGUUCACGUCGCGGCCCCUGUCAGAUUCAGGUGAAUAUGCGAAUUCUGCUGU | 0.933 |
| GGGGGCCACAGCAGAAGCGUUCACGUCGCGGCCCCUGUCAGAUUCAGGUGAAUGUGCGAAUUCUGCUGU | 0.971 |
| GGGGGCCACAGCAGAAGCGUUCACGUCGCGGCCCCUGUCAGAUUCAGGUGAAUCUGCGAAUUCUGAUGU | 0.924 |
| GGGGGCCACAGCAGAAGCGUUCACGUCGCGGCCCCUGUCAGAUUCAGGUGAAUCUGCGAAUUCUGUUGU | 0.972 |
| GGGGGCCACAGCAGAAGCGUUCACGUCGCGGCCCCUGUCAGAUUCAGGUGAAUCUGCGAAUUCUGGUGU | 0.961 |
| GGGGGCCACAGCAGAAGCGUUCACGUCGCGGCCCCUGUCAGAUUCCGGUGAGUCUGCGAAUUCUGCUGU | 1 |
| GGGGGCCACAGCAGAAGCGUUCACGUCGCGGCCCCUGUCAGAUUCCGGUGACUCUGCGAAUUCUGCUGU | 0.943 |
| GGGGGCCACAGCAGAAGCGUUCACGUCGCGGCCCCUGUCAGAUUCAAGUGAAUCUGCGAAUUCUGCUGU | 1.01 |

| Variant | self-cleavage |
| --- | --- |
| GGGGGCCACAGCAGAAGCGUUCACGUCGCGGCCCCUGUCAGAUUCAUGUGAAUCUGCGAAUUCUGCUGU | 0.991 |
| GGGGGCCACAGCAGAAGCGUUCACGUCGCGGCCCCUGUCAGAUUCAGGUGAAUCUGCGAAUUCUGCCGU | 1.01 |
| GGGGGCCACAGCAGAAGCGUUCACGUCGCGGCCCCUGUCAGAUUCAGGUGAAUCUGCGAAUUCUGCGGU | 1.03 |
| GGGGGCCACAGCAGAAGCGUUCACGUCGCGGCCCCUGUCAGAUUCCGGUGAAUCUGAGAAUUCUGCUGU | 0.373 |
| GGGGGCCACAGCAGAAGCGUUCACGUCGCGGCCCCUGUCAGAUUCAGGUGACUCUGCGAAUUCUGCUGU | 1.01 |
| GGGGGCCACAGCAGAAGCGUUCACGUCGCGGCCCCUGUCAGAUUCAGGUGAAUCUGCGAAGUCUGCUGU | 0.902 |
| GGGGGCCACAGCAGAAGCGUUCACGUCGCGGCCCCUGUCAGAUUCAGGUGAAUCUGCGAACUCUGCUGU | 0.86 |
| GGGGGCCACAGCAGAAGCGUUCACGUCGCGGCCCCUGUCAGAUUUUGGUGAAUCUGCGAAUUCUGCUUU | 1.01 |
| GGGGGCCACAGCAGAAGCGUUCACGUCGCGGCCCCUGUCAGAUUUUGGUGAAUCUGCGAAUUCUGCUCU | 1 |
| GGGGGCCACAGCAGAAGCGUUCACGUCGCGGCCCCUGUCAGAUUUUGGUGAAUCAGCGAAUUCUGCUGU | 0.825 |
| GGGGGCCACAGCAGAAGCGUUCACGUCGCGGCCCCUGUCAGAUUUUGGUGAAUCCGCGAAUUCUGCUGU | 0.755 |
| GGGGGCCACAGCAGAAGCGUUCACGUCGCGGCCCCUGUCAGAUUUUGGUGAAUCGGCGAAUUCUGCUGU | 0.668 |
| GGGGGCCACAGCAGAAGCGUUCACGUCGCGGCCCCUGUCAGAUUUUGGUGAACCUGCGAAUUCUGCUGU | 0.834 |
| GGGGGCCACAGCAGAAGCGUUCACGUCGCGGCCCCUGUCAGAUUCAGGUGAAUCUGCAAAUUCUGCUGU | 0.93 |
| GGGGGCCACAGCAGAAGCGUUCACGUCGCGGCCCCUGUCAGAUUCAGGUGAAUCUGCUAAUUCUGCUGU | 0.988 |
| GGGGGCCACAGCAGAAGCGUUCACGUCGCGGCCCCUGUCAGAUUCAGGUGAAUCUGCCAAUUCUGCUGU | 0.961 |
| GGGGGCCACAGCAGAAGCGUUCACGUCGCGGCCCCUGUCAGAUUUUGGUGAAUCUGCGAAUUCUGCUGA | 1.05 |
| GGGGGCCACAGCAGAAGCGUUCACGUCGCGGCCCCUGUCAGAUUUUGGUGAAUCUGCGAAUUCUGCUGC | 1.08 |
| GGGGGCCACAGCAGAAGCGUUCACGUCGCGGCCCCUGUCAGAUUCCAGUGAAUCUGCGAAUUCUGCUGU | 0.682 |
| GGGGGCCACAGCAGAAGCGUUCACGUCGCGGCCCCUGUCAGAUUCCCGUGAAUCUGCGAAUUCUGCUGU | 1.02 |
| GGGGGCCACAGCAGAAGCGUUCACGUCGCGGCCCCUGUCAGAUUUUGGUGAAUCUGCGAAUUCUGCCGU | 0.955 |
| GGGGGCCACAGCAGAAGCGUUCACGUCGCGGCCCCUGUCAGAUUCAGGUGAAUCCGCGAAUUCUGCUGU | 0.871 |
| GGGGGCCACAGCAGAAGCGUUCACGUCGCGGCCCCUGUCAGAUUCAGGUGAAUCAGCGAAUUCUGCUGU | 0.964 |
| GGGGGCCACAGCAGAAGCGUUCACGUCGCGGCCCCUGUCAGAUUCAGGAGAAUCUGCGAAUUCUGCUGU | 1.02 |
| GGGGGCCACAGCAGAAGCGUUCACGUCGCGGCCCCUGUCAGAUUCCGGUGAAUCUGCGAAUUCUGGUGU | 0.762 |
| GGGGGCCACAGCAGAAGCGUUCACGUCGCGGCCCCUGUCAGAUUCCGGUGAAUCUGCGAAUUCUGAUGU | 0.763 |

| Variant | self-cleavage |
| --- | --- |
| GGGGGCCACAGCAGAAGCGUUCACGUCGCGGCCCCUGUCAGAUUCAGGUGAAUCUGCGAAUCCUGCUGU | 0.895 |
| GGGGGCCACAGCAGAAGCGUUCACGUCGCGGCCCCUGUCAGAUUCAGGUGAAUCUGCGAAUGCUGCUGU | 0.925 |
| GGGGGCCACAGCAGAAGCGUUCACGUCGCGGCCCCUGUCAGAUUUUGGUGAAUCUGCGAAUUCUCCUGU | 0.719 |
| GGGGGCCACAGCAGAAGCGUUCACGUCGCGGCCCCUGUCAGAUUUUGGUGAAUCUGCGAAUUCUUCUGU | 0.813 |
| GGGGGCCACAGCAGAAGCGUUCACGUCGCGGCCCCUGUCAGAUUUUGGUGAAUCUGCGAAAUCUGCUGU | 0.919 |
| GGGGGCCACAGCAGAAGCGUUCACGUCGCGGCCCCUGUCAGAUUUUGGUGAAUCUGCGAACUCUGCUGU | 0.887 |
| GGGGGCCACAGCAGAAGCGUUCACGUCGCGGCCCCUGUCAGAUUCAGGUGAAUCUGCGGAUUCUGCUGU | 1.02 |
| GGGGGCCACAGCAGAAGCGUUCACGUCGCGGCCCCUGUCAGAUUCAGGUGAAUCUGCGCAUUCUGCUGU | 0.802 |
| GGGGGCCACAGCAGAAGCGUUCACGUCGCGGCCCCUGUCAGAUUCAGGUGAAUCUGCGAAUUCUGCUGA | 0.991 |
| GGGGGCCACAGCAGAAGCGUUCACGUCGCGGCCCCUGUCAGAUUCAGGUGAAUCUGCGAAUUCUGCUGC | 1.07 |
| GGGGGCCACAGCAGAAGCGUUCACGUCGCGGCCCCUGUCAGAUUCAGGUCAAUCUGCGAAUUCUGCUGU | 0.951 |
| GGGGGCCACAGCAGAAGCGUUCACGUCGCGGCCCCUGUCAGAUUCAGGUAAAUCUGCGAAUUCUGCUGU | 0.974 |
| GGGGGCCACAGCAGAAGCGUUCACGUCGCGGCCCCUGUCAGAUUUUGGUGAAUCUGCGAAUUCGGCUGU | 0.854 |
| GGGGGCCACAGCAGAAGCGUUCACGUCGCGGCCCCUGUCAGAUUUUGGUGAAUCUGCGAAUACUGCUGU | 0.908 |
| GGGGGCCACAGCAGAAGCGUUCACGUCGCGGCCCCUGUCAGAUUCAGGUGAAUCUGCGAAUUCUGCUAU | 1.02 |
| GGGGGCCACAGCAGAAGCGUUCACGUCGCGGCCCCUGUCAGAUUCAGGUGAAUCUGCGAAUUCUGCUCU | 0.97 |
| GGGGGCCACAGCAGAAGCGUUCACGUCGCGGCCCCUGUCAGAUUCCGGUGAAUGUGCGAAUUCUGCUGU | 0.891 |
| GGGGGCCACAGCAGAAGCGUUCACGUCGCGGCCCCUGUCAGAUUCCGGUGAAUAUGCGAAUUCUGCUGU | 0.772 |
| GGGGGCCACAGCAGAAGCGUUCACGUCGCGGCCCCUGUCAGAUUCAGGUGAAUCUGCGAAUUCGGCUGU | 0.964 |
| GGGGGCCACAGCAGAAGCGUUCACGUCGCGGCCCCUGUCAGAUUCAGGUGAAUCUGCGAAUUCAGCUGU | 0.955 |
| GGGGGCCACAGCAGAAGCGUUCACGUCGCGGCCCCUGUCAGAUUCAGGUGUAUCUGCGAAUUCUGCUGU | 1.01 |
| GGGGGCCACAGCAGAAGCGUUCACGUCGCGGCCCCUGUCAGAUUCAGGUGCAUCUGCGAAUUCUGCUGU | 0.99 |
| GGGGGCCACAGCAGAAGCGUUCACGUCGCGGCCCCUGUCAGAUUCCGGUGAAUCUGCGAAUUAUGCUGU | 0.771 |
| GGGGGCCACAGCAGAAGCGUUCACGUCGCGGCCCCUGUCAGAUUCCGGUGAAUCUGCGAAUUGUGCUGU | 0.796 |
| GGGGGCCACAGCAGAAGCGUUCACGUCGCGGCCCCUGUCAGAUUCCGGUGAAUCUGCGAAUUUUGCUGU | 0.983 |
| GGGGGCCACAGCAGAAGCGUUCACGUCGCGGCCCCUGUCAGAUUCAGGUGAAUCUACGAAUUCUGCUGU | 0.997 |
